# Measured values reported in US20120172295A1 (INDIANA UNIVERSITY RESEARCH AND TECHNOLOGY, published 2012).
# Positions of bridges follow the written chain, without caps; N, C: chain ends. Non-standard residues stand in square brackets, D forms with d. No end group written: not given here. *: point of attachment. Isobutyryl(2-imidazol-4-yl) = CC(C)(C(=O)*)c1c[nH]cn1; PEG = not defined here; Aib = CC(C)(N)C(=O)O
# Legend:
# GLP-1 receptor = GLP-1 receptor (UniProt P43220 24-463, limits assumed); assay: cell-based or functional assay
# glucagon receptor = glucagon receptor (UniProt P47871 26-477, limits assumed); assay: cell-based or functional assay
# Chain of glucagon receptor (P47871 26-477 limits assumed): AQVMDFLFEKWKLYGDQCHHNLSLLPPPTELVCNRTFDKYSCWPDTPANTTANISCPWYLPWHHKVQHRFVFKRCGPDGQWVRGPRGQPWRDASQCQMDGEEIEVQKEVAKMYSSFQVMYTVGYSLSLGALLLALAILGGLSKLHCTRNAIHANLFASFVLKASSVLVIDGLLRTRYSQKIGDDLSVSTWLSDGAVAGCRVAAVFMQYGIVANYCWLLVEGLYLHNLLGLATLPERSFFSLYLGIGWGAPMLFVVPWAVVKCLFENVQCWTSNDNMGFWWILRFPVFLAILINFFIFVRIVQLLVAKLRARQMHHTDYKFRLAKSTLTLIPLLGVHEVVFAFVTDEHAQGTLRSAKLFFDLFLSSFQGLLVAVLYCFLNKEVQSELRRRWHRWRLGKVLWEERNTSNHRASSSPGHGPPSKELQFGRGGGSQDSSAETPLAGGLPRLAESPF
Binder,% Potency Relative to Native (GLP-1 receptor),% Potency Relative to Native (glucagon receptor)
"H[Aib]QGTFTSDYSKYLDERAAKDFVC(PEG)WLMNT-NH2 (reading uncertain) [E16, K20AIB2, A18 Cys24 (SEQ ID NO: 492), parent w/PEG]",73.5%,1.1%
"[Isobutyryl(2-imidazol-4-yl)]SQGTFTSDYSKYLDEQAAKEFICWLMNT-NH2 (lactam 16-20; SMILES CC[C@H](C)[C@H](NC(=O)[C@H](Cc1ccccc1)NC(=O)[C@H](CCC(=O)O)NC(=O)[C@@H]1CCCCNC(=O)CC[C@H](NC(=O)[C@H](CC(=O)O)NC(=O)[C@H](CC(C)C)NC(=O)[C@H](Cc2ccc(O)cc2)NC(=O)[C@H](CCCCN)NC(=O)[C@H](CO)NC(=O)[C@H](Cc2ccc(O)cc2)NC(=O)[C@H](CC(=O)O)NC(=O)[C@H](CO)NC(=O)[C@@H](NC(=O)[C@H](Cc2ccccc2)NC(=O)[C@@H](NC(=O)CNC(=O)[C@H](CCC(N)=O)NC(=O)[C@H](CO)NC(=O)C(C)(C)c2c[nH]cn2)[C@@H](C)O)[C@@H](C)O)C(=O)N[C@@H](CCC(N)=O)C(=O)N[C@@H](C)C(=O)N[C@@H](C)C(=O)N1)C(=O)N[C@@H](CS)C(=O)N[C@@H](Cc1c[nH]c2ccccc12)C(=O)N[C@@H](CC(C)C)C(=O)N[C@@H](CCSC)C(=O)N[C@@H](CC(N)=O)C(=O)N[C@H](C(N)=O)[C@@H](C)O) [Chimera DMIA1, Cys24 Lactam (SEQ ID NO: 505), parent w/o PEG]",82.5%,161%
"H[Aib]QGTFTSDYSKYLDEQAAKEFIAWLMNC(PEG)-NH2 (reading uncertain) [Chimera AIB2, Cys29 (SEQ ID NO: 487), parent w/PEG]",54.3%,5.6%
"H[Aib]QGTFTSDYSKYLDEQAAKEFIAWLMNGGPSSGAPPPSC(PEG)-NH2 (reading uncertain) [Chimera AIB2, Gly29,30 Cys40 Cex (SEQ ID NO: 488), parent w/PEG]",68.8%,0.3%
"H[Aib]QGTFTSDYSKYLDERAAKDFVC(PEG)WLMNGGPSSGAPPPS-NH2 (not fully specified; reading uncertain) [E16, K20AIB2, A18 Gly29,30 Cys24 Cex (SEQ ID NO: 496), parent w/PEG]",88.5%,0.1%
"H[Aib]QGTFTSDYSKYLDEQAAKEFIAWLMNGGPSSGAPPPSC(PEG)-NH2 (lactam 16-20; reading uncertain) [Chimera AIB2, Gly29,30 Cys40 Cex Lactam (SEQ ID NO: 489), parent w/PEG]",63.6%,3.2%
"H[Aib]QGTFTSDYSKYLDEQAAKEFIAWLMNGGPSSGAPPPSC-NH2 (N-terminus assumed; SMILES CC[C@H](C)[C@H](NC(=O)[C@H](Cc1ccccc1)NC(=O)[C@H](CCC(=O)O)NC(=O)[C@H](CCCCN)NC(=O)[C@H](C)NC(=O)[C@H](C)NC(=O)[C@H](CCC(N)=O)NC(=O)[C@H](CCC(=O)O)NC(=O)[C@H](CC(=O)O)NC(=O)[C@H](CC(C)C)NC(=O)[C@H](Cc1ccc(O)cc1)NC(=O)[C@H](CCCCN)NC(=O)[C@H](CO)NC(=O)[C@H](Cc1ccc(O)cc1)NC(=O)[C@H](CC(=O)O)NC(=O)[C@H](CO)NC(=O)[C@@H](NC(=O)[C@H](Cc1ccccc1)NC(=O)[C@@H](NC(=O)CNC(=O)[C@H](CCC(N)=O)NC(=O)C(C)(C)NC(=O)[C@@H](N)Cc1c[nH]cn1)[C@@H](C)O)[C@@H](C)O)C(=O)N[C@@H](C)C(=O)N[C@@H](Cc1c[nH]c2ccccc12)C(=O)N[C@@H](CC(C)C)C(=O)N[C@@H](CCSC)C(=O)N[C@@H](CC(N)=O)C(=O)NCC(=O)NCC(=O)N1CCC[C@H]1C(=O)N[C@@H](CO)C(=O)N[C@@H](CO)C(=O)NCC(=O)N[C@@H](C)C(=O)N1CCC[C@H]1C(=O)N1CCC[C@H]1C(=O)N1CCC[C@H]1C(=O)N[C@@H](CO)C(=O)N[C@@H](CS)C(N)=O) [Chimera AIB2, Gly29,30 Cys40 Cex (SEQ ID NO: 488), parent w/o PEG]",359%,2.2%
"H[Aib]QGTFTSDYSKYLDEQAAKEFIC(PEG)WLMNGGPSSGAPPPS-NH2 (lactam 16-20; reading uncertain) [Chimera AIB2, Gly29,30 Cys24 Cex Lactam (SEQ ID NO: 491), parent w/PEG]",96.4%,1.4%
"[Isobutyryl(2-imidazol-4-yl)]SQGTFTSDYSKYLDEQAAKEFIC(PEG)WLMNT-NH2 (lactam 16-20; reading uncertain) [Chimera DMIA1, Cys24 Lactam (SEQ ID NO: 505), parent w/PEG]",12.5%,19.1%
"H[Aib]QGTFTSDYSKYLDEQAAKEFIAWLMNGGPSSGAPPPSC-NH2 (lactam 16-20; N-terminus assumed; SMILES CC[C@H](C)[C@H](NC(=O)[C@H](Cc1ccccc1)NC(=O)[C@H](CCC(=O)O)NC(=O)[C@@H]1CCCCNC(=O)CC[C@H](NC(=O)[C@H](CC(=O)O)NC(=O)[C@H](CC(C)C)NC(=O)[C@H](Cc2ccc(O)cc2)NC(=O)[C@H](CCCCN)NC(=O)[C@H](CO)NC(=O)[C@H](Cc2ccc(O)cc2)NC(=O)[C@H](CC(=O)O)NC(=O)[C@H](CO)NC(=O)[C@@H](NC(=O)[C@H](Cc2ccccc2)NC(=O)[C@@H](NC(=O)CNC(=O)[C@H](CCC(N)=O)NC(=O)C(C)(C)NC(=O)[C@@H](N)Cc2c[nH]cn2)[C@@H](C)O)[C@@H](C)O)C(=O)N[C@@H](CCC(N)=O)C(=O)N[C@@H](C)C(=O)N[C@@H](C)C(=O)N1)C(=O)N[C@@H](C)C(=O)N[C@@H](Cc1c[nH]c2ccccc12)C(=O)N[C@@H](CC(C)C)C(=O)N[C@@H](CCSC)C(=O)N[C@@H](CC(N)=O)C(=O)NCC(=O)NCC(=O)N1CCC[C@H]1C(=O)N[C@@H](CO)C(=O)N[C@@H](CO)C(=O)NCC(=O)N[C@@H](C)C(=O)N1CCC[C@H]1C(=O)N1CCC[C@H]1C(=O)N1CCC[C@H]1C(=O)N[C@@H](CO)C(=O)N[C@@H](CS)C(N)=O) [Chimera AIB2, Gly29,30 Cys40 Cex Lactam (SEQ ID NO: 489), parent w/o PEG]",170%,14.2%
"H[Aib]QGTFTSDYSKYLDEQAAKEFICWLMNGGPSSGAPPPS-NH2 (lactam 16-20; N-terminus assumed; SMILES CC[C@H](C)[C@H](NC(=O)[C@H](Cc1ccccc1)NC(=O)[C@H](CCC(=O)O)NC(=O)[C@@H]1CCCCNC(=O)CC[C@H](NC(=O)[C@H](CC(=O)O)NC(=O)[C@H](CC(C)C)NC(=O)[C@H](Cc2ccc(O)cc2)NC(=O)[C@H](CCCCN)NC(=O)[C@H](CO)NC(=O)[C@H](Cc2ccc(O)cc2)NC(=O)[C@H](CC(=O)O)NC(=O)[C@H](CO)NC(=O)[C@@H](NC(=O)[C@H](Cc2ccccc2)NC(=O)[C@@H](NC(=O)CNC(=O)[C@H](CCC(N)=O)NC(=O)C(C)(C)NC(=O)[C@@H](N)Cc2c[nH]cn2)[C@@H](C)O)[C@@H](C)O)C(=O)N[C@@H](CCC(N)=O)C(=O)N[C@@H](C)C(=O)N[C@@H](C)C(=O)N1)C(=O)N[C@@H](CS)C(=O)N[C@@H](Cc1c[nH]c2ccccc12)C(=O)N[C@@H](CC(C)C)C(=O)N[C@@H](CCSC)C(=O)N[C@@H](CC(N)=O)C(=O)NCC(=O)NCC(=O)N1CCC[C@H]1C(=O)N[C@@H](CO)C(=O)N[C@@H](CO)C(=O)NCC(=O)N[C@@H](C)C(=O)N1CCC[C@H]1C(=O)N1CCC[C@H]1C(=O)N1CCC[C@H]1C(=O)N[C@@H](CO)C(N)=O) [Chimera AIB2, Gly29,30 Cys24 Cex Lactam (SEQ ID NO: 491), parent w/o PEG]",382%,25.2%
"H[Aib]QGTFTSDYSKYLDEQAAKEFICWLMNGGPSSGAPPPS-NH2 (N-terminus assumed; SMILES CC[C@H](C)[C@H](NC(=O)[C@H](Cc1ccccc1)NC(=O)[C@H](CCC(=O)O)NC(=O)[C@H](CCCCN)NC(=O)[C@H](C)NC(=O)[C@H](C)NC(=O)[C@H](CCC(N)=O)NC(=O)[C@H](CCC(=O)O)NC(=O)[C@H](CC(=O)O)NC(=O)[C@H](CC(C)C)NC(=O)[C@H](Cc1ccc(O)cc1)NC(=O)[C@H](CCCCN)NC(=O)[C@H](CO)NC(=O)[C@H](Cc1ccc(O)cc1)NC(=O)[C@H](CC(=O)O)NC(=O)[C@H](CO)NC(=O)[C@@H](NC(=O)[C@H](Cc1ccccc1)NC(=O)[C@@H](NC(=O)CNC(=O)[C@H](CCC(N)=O)NC(=O)C(C)(C)NC(=O)[C@@H](N)Cc1c[nH]cn1)[C@@H](C)O)[C@@H](C)O)C(=O)N[C@@H](CS)C(=O)N[C@@H](Cc1c[nH]c2ccccc12)C(=O)N[C@@H](CC(C)C)C(=O)N[C@@H](CCSC)C(=O)N[C@@H](CC(N)=O)C(=O)NCC(=O)NCC(=O)N1CCC[C@H]1C(=O)N[C@@H](CO)C(=O)N[C@@H](CO)C(=O)NCC(=O)N[C@@H](C)C(=O)N1CCC[C@H]1C(=O)N1CCC[C@H]1C(=O)N1CCC[C@H]1C(=O)N[C@@H](CO)C(N)=O) [Chimera AIB2, Gly29,30 Cys24 Cex (SEQ ID NO: 490), parent w/o PEG]",458%,2.5%
"H[Aib]QGTFTSDYSKYLDEQAAKEFIAWLMNC-NH2 (N-terminus assumed; SMILES CC[C@H](C)[C@H](NC(=O)[C@H](Cc1ccccc1)NC(=O)[C@H](CCC(=O)O)NC(=O)[C@H](CCCCN)NC(=O)[C@H](C)NC(=O)[C@H](C)NC(=O)[C@H](CCC(N)=O)NC(=O)[C@H](CCC(=O)O)NC(=O)[C@H](CC(=O)O)NC(=O)[C@H](CC(C)C)NC(=O)[C@H](Cc1ccc(O)cc1)NC(=O)[C@H](CCCCN)NC(=O)[C@H](CO)NC(=O)[C@H](Cc1ccc(O)cc1)NC(=O)[C@H](CC(=O)O)NC(=O)[C@H](CO)NC(=O)[C@@H](NC(=O)[C@H](Cc1ccccc1)NC(=O)[C@@H](NC(=O)CNC(=O)[C@H](CCC(N)=O)NC(=O)C(C)(C)NC(=O)[C@@H](N)Cc1c[nH]cn1)[C@@H](C)O)[C@@H](C)O)C(=O)N[C@@H](C)C(=O)N[C@@H](Cc1c[nH]c2ccccc12)C(=O)N[C@@H](CC(C)C)C(=O)N[C@@H](CCSC)C(=O)N[C@@H](CC(N)=O)C(=O)N[C@@H](CS)C(N)=O) [Chimera AIB2, Cys29 (SEQ ID NO: 487), parent w/o PEG]",125%,20.1%
"H[Aib]QGTFTSDYSKYLDEQAAKEFIC(PEG)WLMNGGPSSGAPPPS-NH2 (reading uncertain) [Chimera AIB2, Gly29,30 Cys24 Cex (SEQ ID NO: 490), parent w/PEG]",95.4%,0.2%
